For data set [1], the system named is metastatic pancreatic adenocarcinoma. Particulars: cited from earlier work.
A further data set deals with T1, GAS6 (Homo sapiens, UniProt Q14393).
T1 sequence (Q14393 31-678): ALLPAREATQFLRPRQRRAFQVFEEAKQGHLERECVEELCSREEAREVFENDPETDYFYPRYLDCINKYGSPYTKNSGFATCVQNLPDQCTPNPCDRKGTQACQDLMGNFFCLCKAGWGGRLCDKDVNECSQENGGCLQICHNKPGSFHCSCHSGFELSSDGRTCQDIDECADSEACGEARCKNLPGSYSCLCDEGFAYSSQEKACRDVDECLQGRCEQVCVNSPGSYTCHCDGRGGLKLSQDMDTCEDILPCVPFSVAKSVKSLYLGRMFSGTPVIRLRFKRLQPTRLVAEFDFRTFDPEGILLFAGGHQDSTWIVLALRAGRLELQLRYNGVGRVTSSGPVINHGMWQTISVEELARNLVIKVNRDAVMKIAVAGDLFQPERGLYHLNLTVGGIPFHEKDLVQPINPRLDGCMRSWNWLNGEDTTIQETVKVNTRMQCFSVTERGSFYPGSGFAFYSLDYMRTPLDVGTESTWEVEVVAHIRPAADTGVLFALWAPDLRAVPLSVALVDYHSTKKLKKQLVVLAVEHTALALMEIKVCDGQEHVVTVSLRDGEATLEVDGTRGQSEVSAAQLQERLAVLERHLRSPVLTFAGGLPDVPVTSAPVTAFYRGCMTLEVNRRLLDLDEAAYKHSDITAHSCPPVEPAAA
Description: Binding affinity to GAS6.

Another data set concerns highly metastatic cells. The data set can be described thus: AXL signaled invasion and migration in vitro. The data set is classed as cell-based.
In data set [2] the test system is aggressive human cancers. The data set can be described thus: Preclinical (nonclinical) tumor models. Format: in vivo, mouse.
A short description of data set [3]: Pharmacokinetics in the cynomolgus monkey. Format: in vivo. Particulars: IV. The source says:
The pharmacokinetics (PK) and toxicokinetics of AVB-S6-500 and pharmacodynamics (PD) of growth arrest specific-6 protein (GAS6) have been investigated in mice (intraperitoneal [IP] and intravenous [IV] routes) and monkeys (IV route) following single and repeat dosing. The PK profile of AVB-S6-500 is compatible with target-mediated drug disposition (TMDD) with 2 parallel elimination paths: normal clearance of IgG and second order that is saturable and fits the typical 2-compartment model. […] Using the TMDD model (Dirks, N. A., Clinical Pharmacokinetics, 633-659, 2010), the human dose estimated to be efficacious may range from 1 mg/kg (to ensure GAS6 levels remain at least 90% less than baseline) to 20 mg/kg (to ensure 99% abrogation of GAS6 and allowing for a 3-fold increase in GAS6 levels in patients with cancer relative to normal levels). This model was used to select first-in-human dosing, and an external validation showing good agreement between projections and clinical observations has been published (Bonifacio, L., Clinical and Translational Science, 1-8, 2019).

The test system of a further data set is mouse. The data set can be described thus: 3-month mouse toxicity study. Format: in vivo. How it is done: There were no clinical observations, no changes in urinalysis parameters, no ophthalmology signs, and no macroscopic or microscopic observations of significance related to the administration of AVB-S6-500 at doses up to the NOAEL of 200 mg/kg/week.
For another data set, the system named is monkey. The data set can be described thus: 3-month monkey toxicity study. The data set is classed as in vivo.
A further data set deals with healthy volunteers. The data set can be described thus: First-in-human Phase 1 single ascending dose and repeat-dose study. The data set is classed as in vivo.
The test system of data set [4] is platinum-resistant, recurrent ovarian cancer. Description: Ph1b trial in platinum-resistant, recurrent ovarian cancer. Format: in vivo, human. The protocol:
AVB-S6-500 was evaluated in a Ph1b trial in combination with either paclitaxel or pegylated liposomal doxorubicin in subjects with platinum-resistant, recurrent ovarian cancer. Fifty-three subjects were dosed with AVB-S6-500 at doses ranging from 10 to 20 mg/kg once every 2 weeks in combination with their physician-chosen chemotherapy. […] All infusion reactions have been Grade 1 or 2, none met serious criteria, and all resolved without sequelae.

Data set [5] concerns pancreatic (PDA1-1) models. The data set can be described thus: Pancreatic mouse models. The data set is classed as in vivo.
Data set [6] relates to aggressive human cancers. Particulars: cited from earlier work.
In data set [7] the test system is locally advanced, recurrent, or metastatic 1L pancreatic adenocarcinoma. Description: Phase 1b study of AVB-S6-500 plus nab-paclitaxel and gemcitabine.
Description: The AVB-S6-500 volume is adjusted according to the subject's weight and diluted prior to infusion.
On days when all three drugs are administered, the sequence of administration is AVB-S6-500 infusion first followed by at least a 30-minute observation period, then nab-paclitaxel immediately followed by gemcitabine. AVB-S6-500 (15 mg/kg) will be administered by a 1-hour IV infusion on Days 1 and 15 of each 28-day cycle. Subjects will receive premedication with anti-H1 antagonists (anti-H1) and anti-H2 antagonists (anti-H2) (steroids optional) prior to administration of AVB-S6-500 to reduce the risk and severity of infusion reactions. Nab-paclitaxel (125 mg/m2) will be administered by a 30-40-minute IV infusion on Days 1, 8, and 15 of each 28-day cycle. Immediately following nab-paclitaxel, gemcitabine (1000 mg/m2) will be administered by a 30-minute IV infusion on Days 1, 8, and 15 of each 28-day cycle. Appropriate premedication with corticosteroids, diphenhydramine, and H2 antagonists (as per institutional practice, with IV antihistamines and steroids strongly recommended) should be administered prior to administration of nab-paclitaxel and gemcitabine.
The Ph1b portion of this study is a multicenter, open-label, single treatment arm group design to evaluate the safety, tolerability, and preliminary efficacy of AVB-S6-500 in combination with nab-paclitaxel and gemcitabine in subjects with locally advanced, recurrent, or metastatic 1L pancreatic adenocarcinoma.
The mark [8] stands for this setting: clinical data from prior studies of AVB-S6-500.
The mark [9] stands for this setting: number of the 5 subjects at 15 mg/kg, with chemotherapy.

Description for healthy volunteers: Single dose cohorts of 1, 2.5, 5, and 10 mg/kg were evaluated as well as 1 RD cohort dosed with 5 mg/kg once weekly for 4 weeks.

`Nc1ccn([C@@H]2O[C@H](CO)[C@@H](O)C2(F)F)c(=O)n1` [gemcitabine]: in [1] (861 subjects randomized), the OS is 6.7 months. The Sepsis in [1] (all grades) was 2%. Also, in data set [1] (in vivo), the Fatal events is on record as 4%, the median progression-free survival is 3.7 months, the pneumonitis is 1% and the “proportion of patients with SAEs” value was 43%. Further, the “response rate according to independent review” value in data set [1] (in vivo) is 7%.
Take “AVB-S6-500: soluble AXL variant polypeptide fusion protein comprising an Fc domain, a linker, lacks a functional FN domain, SEQ ID NO: 2”: in the data set with GAS6, the “apparent affinity to GAS6” value was 93-324 femtomolar and the “higher affinity than wild-type (WT) AXL” value is “approximately 200 fold”. Moreover, the “AXL signaled invasion and migration” value in the data set on highly metastatic cells was “dramatically reducing AXL signaled invasion and migration”. Also, the “effect on tumor cells in vivo” value in the data set with aggressive human cancers [2] (dosing 4-7 days after tumor inoculation, small tumors established in the mouse) is “regression of tumor cells”. Moreover, the metastatic disease entry in the data set on aggressive human cancers [2] (preclinical models of aggressive human cancers) is recorded as “inhibiting metastatic disease”. Further, in data set [3] (doses above 5 mg/kg), the clearance entry is listed as “lower”, the half-life entry was “longer” and the volume of distribution result is on record as “larger”. In addition, in data set [3] (doses below 5 mg/kg), the clearance result is reported as “high” and the half-life result is “short”. Also, the mortalities result with mouse (mouse, in vivo) is given as “no mortalities”. Besides, the no observed adverse effect level (NOAEL) in the data set with mouse (twice-weekly slow bolus IV infusion) is 200 mg/kg/week. In addition, the “no-observed-adverse-effect-level (NOAEL)” value in the data set on mouse (twice-weekly slow bolus IV infusion, 25, 50, 100 mg/kg) is “at least 100 mg/kg/dose”. Also, in the data set on monkey (monkey, in vivo), the clinical pathology changes result was “non-dose-dependent clinical pathology changes seen and those were consistent with an immune response in monkeys to the human AVB-S6-500 protein”; the mortalities result is given as “no mortalities”. Further, the NOAEL entry in the data set with monkey (once-weekly 30-minute IV infusion, 50, 100, 150 mg/kg) is reported as “at least 150 mg/kg/dose”. Further, in the data set with healthy volunteers (human, in vivo), the “maximum tolerated dose (MTD)” value is recorded as “not reached”. In addition, the “dose related AEs or SAEs” value in the data set with healthy volunteers (in vivo) is “no dose related AEs or SAEs”. Also, the tolerability entry in the data set with healthy volunteers (single 1, 2.5, 5, 10 mg/kg, 5 mg/kg weekly for 4 weeks, IV over 60 minutes) was “well tolerated at all doses”. Also, the dose-limiting toxicities entry in data set [4] (10 to 20 mg/kg every 2 weeks with paclitaxel or pegylated liposomal doxorubicin, 53 subjects) is given as “No dose-limiting toxicities were observed”. Also, in data set [4] (all infusion reactions), the “grade of infusion reactions” value is “Grade 1 or 2”. For the same compound, in data set [4] (setting [8]), the “toxicity, anemia” value is given as 21%; the “toxicity, fatigue” value came to 26%; the “toxicity, infusion reaction” value is reported as 21%; the “toxicity, nausea” value amounted to 13%. In data set [4] (setting [9]), the “complete response (CR)” value is on record as 1 and the “partial responses (PRs)” value is 2. For the same compound, in data set [5] (PDA1-1 models, combined with gemcitabine), the “metastatic tumor weight and number” value is recorded as “Significant reductions”. For the same compound, in data set [5] (combined with gemcitabine), the fibrosis result is “substantially decreased” and the survival result was “prolonged”. Also, the metastasis development result in data set [5] (monotherapy) is on record as “decrease in metastasis development”. For the same compound, in the data set with tumor cells, the direct cytotoxicity entry is “not directly cytotoxic”. Besides, the “toxicity in pharmacology studies” value in the data set on aggressive human cancers [6] (mouse, in vivo) is recorded as “no toxicity”. Also, the “antitumor efficacy compared with other anti-AXL small molecules in clinical development” value with aggressive human cancers [6] (nonclinical models) was “superior antitumor efficacy”. The “patients with Grade 4 or 5 adverse effects” value in [7] (AVB-S6-500 related, N = 21) is “no patients”. For the same compound, in [7] (N = 21), the “AEs Leading to AVB-S6-500 Treatment Discontinuation, events” value is “fatigue and sepsis”; the “AVB-S6-500-Related Deaths” value was “no AVB-S6-500 related deaths”. For the same compound, in [7] (patients (% of N = 21)), the “AEs Leading to AVB-S6-500 Treatment Discontinuation” value was determined as 2, the “AEs of Special Interest (Infusion Related Reactions)” value stood at 3 and the “Grade 3 Adverse Effects Related to AVB-S6-500” value is reported as 6.

The NOAEL is the highest dose or exposure tested at which no adverse effect was seen.
